According to US20240336907A1, “NOVEL ENDO-ß-N-ACETYLGLUCOSAMINIDASE” (priority 2020, published 2024):
Where a chain is given by its changes, count along the chain named. Names and notes keep the numbering of the source.

B1: Endo-Si T190Q (protein)
chain: MNKRLLVKRTFGCVCAAAILGVAPLSHPTIVEAREELKMPNGLEQSIADVEAKIDALTYLSKNSKDEFKHSMYEIPSNREHKPVSPKQALQNAKKADAQAERLAKMTIPKKEELKALEGPLYGGYFRTWQDKTSDPTETNKVNSFGELPKEVDLAFVFHDYTKDYSLFWEELATKQVPKLNKQGTRVIRQIPWRFLSGADHSDISADKEKFPNTEAGNKALAKAIVDEYVYKYNLDGLDIDIERDSVPKVNDKEDPEALARTVEVFKEIGKLIGANGADKSRLLIMDTTYTAEENPLIKETAQYLNLLLVQVYGFSGENGNYLHHKNILDETSSMEGRWQGYSKYIRPEQYMVGFSFYEEKDFNNRWKDINEEDPSDPHIGEKIQGTRAERYAKWQPKTGGLKGGLFSYAIDRDGVAQPKQKTEHPELDKIVKSEYKVSKALKKLMMTDDQYQPIDQSDFPDKALRESIIKQVGTRRGDLERFKGTLRLDNPEIKDLTGLNKLKRVAKLELINLPKITKIDKDDLPQNLKPLTDNQKSNLEIKGTYDDSKLYKDIPAFDLVISGLSGLESLDISGHQRDTLSGIDASTLPSLKAINISDNHFDLAQGTENRHILDTILATLAKNGASTASFDKQKPKGLYPESYSTAPLHLQVGQGKINVIDDLIFGTRTNQNTLINTENDFEAYKEQTIQGKPFIAPDYLYDNFKVSYKEYSASIVDSTLAETTDKTIDTAKAETYQVTVSNKDGKTVHSVKVIVGDEKPMMVNLAQDAKIIGTDNMTQSAKVFDGQKDQFLLSWNKDSSVIFELKTPGTAKHWRFFDDGKNDSVTLSVFKGDASNFETEKDKAENWVEITKDSRKNDDKVFSSPLEVDNAKYLKVTIKKEAKYIYFNELQILGYPGVVAKKTADDLRPTEADKSDDKSDKNDTEAK
modifications: Amino acid sequence of Endo-Si T190Q
B2: Endo-Si D241M/Q311L (protein)
chain: B1 chain with Q190T, D241M, Q311L
modifications: Amino acid sequence of Endo-Si D241M/Q311L
B3: Endo-Si T190Q/D241Q (protein)
chain: B1 chain with D241Q
modifications: Amino acid sequence of Endo-Si T190Q/D241Q
B4: Endo-Si D241M/E360Q (protein)
chain: B1 chain with Q190T, D241M, E360Q
modifications: Amino acid sequence of Endo-Si D241M/E360Q

How the values were obtained:
(Fucα1,6)GlcNAc-mAb2 [1] = assay: Transglycosylation activity with sugar chain oxazoline [N3-PEG(3)]-MSG1(9)-Ox as donor; assay type: biochemical; conditions: donor [N3-PEG(3)]-MSG1(9)-Ox (8 eq.), enzyme 1.25 μg, 28° C., pH 7.5
Protocol: Transglycosylation activity was evaluated as follows. […] A sample was taken from each of the reaction solutions at 1, 2, 4, 6, and 24 hours after initiation of the reaction and analyzed for protein by a fully automated electrophoresis system as mentioned above. In the chromatogram obtained, an unreacted product and transglycosylated molecule, mAb2-(MSG1-N3)2 were confirmed as discrete peaks. The transglycosylation rate was calculated based on the peak-area ratio between the unreacted product and the transglycosylated molecule in accordance with the following expression.
Transglycosylation rate (%)=[[peak area of mAb2-(MSG1-N3)2-derived H chain]/{[peak area of (Fucα1,6)GlcNAc-mAb2-derived H chain]+[peak area of mAb2-(MSG1-N3)2-derived H chain]}]×100
Similarly, the transglycosylation rates of individual Endo-Si mutant enzymes at each time period for a reaction were calculated (Table 5).

(Fucα1,6)GlcNAc-mAb2 [2] = assay: Transglycosylation activity with SGP as donor, in combination with Endo-M N175Q; assay type: biochemical; conditions: donor SGP (50 eq.), Endo-M N175Q 2.5 mU, Endo-Si enzyme 10 μg, 23° C., pH 7.5
Protocol: Transglycosylation activity was evaluated as follows. A 50 mM (sodium) phosphate buffer (pH 7.5) solution (17 μL) containing (Fucα1,6)GlcNAc-mAb2 (0.5 mg), SGP (0.485 mg (50 eq.)), Endo-M N175Q (manufactured by Tokyo Kasei Kogyo Co., Ltd.) (2.5 mU) and each of various Endo-Si mutant enzymes (10 μg), was prepared and incubated at 23° C. A sample was taken from each of the reaction solutions at 2, 4, 6, 24, and 48 hours after initiation of the reaction and analyzed for protein by a fully automated electrophoresis system as mentioned above. In the chromatogram obtained, an unreacted product and a transglycosylated molecule, mAb2-(SG)2 are confirmed as discrete peaks. The transglycosylation rates were obtained based on the peak area ratio between the unreacted product and the transglycosylated molecule in accordance with the following expression.
Similarly, transglycosylation rates of individual Endo-Si mutant enzymes at each time period of a reaction were calculated (Table 6).

Molecule | Transglycosylation rate ((Fucα1,6)GlcNAc-mAb2 [1]; 1 h) [%] | Transglycosylation rate ((Fucα1,6)GlcNAc-mAb2 [1]; 2 h) [%] | Transglycosylation rate ((Fucα1,6)GlcNAc-mAb2 [1]; 4 h) [%] | Transglycosylation rate ((Fucα1,6)GlcNAc-mAb2 [1]; 6 h) [%] | Transglycosylation rate ((Fucα1,6)GlcNAc-mAb2 [1]; 24 h) [%] | Transglycosylation rate ((Fucα1,6)GlcNAc-mAb2 [2]; 2 h) [%] | Transglycosylation rate ((Fucα1,6)GlcNAc-mAb2 [2]; 4 h) [%] | Transglycosylation rate ((Fucα1,6)GlcNAc-mAb2 [2]; 6 h) [%] | Transglycosylation rate ((Fucα1,6)GlcNAc-mAb2 [2]; 24 h) [%] | Transglycosylation rate ((Fucα1,6)GlcNAc-mAb2 [2]; 48 h) [%]
B1 | 97.2 | 91.8 | 81.8 | 76.7 | 32.6 | 13.3 | 27.8 | 43.2 | 93.8 | 93.3
B2 | 31.8 | 59.1 | 95.9 | 99.5 | 99.9 | 6.4 | 13.7 | 24.1 | 79.7 | 97.0
B3 | 26.6 | 48.4 | 83.3 | 96.1 | 99.6 | 4.9 | 10.6 | 21.4 | 71.5 | 92.5
B4 | 99.1 | 99.0 | 96.2 | 95.5 | 75.9 | 11.9 | 27.7 | 42.7 | 98.0 | 98.7
